Tests used:
PD-L1 [1] = target: PD-L1 (UniProt Q9NZQ7); assay: competition ELISA, PD-1 at 50 μg/ml, BP at 200 μg/ml
PD-L1 [2] = target: PD-L1 (UniProt Q9NZQ7); assay: ELISA, PD-L1 coated, BP at 200 μg/ml, reference PD-1 binding PD-L1

UniProt Q9NZQ7, sequence (Q9NZQ7 19-238 limits assumed): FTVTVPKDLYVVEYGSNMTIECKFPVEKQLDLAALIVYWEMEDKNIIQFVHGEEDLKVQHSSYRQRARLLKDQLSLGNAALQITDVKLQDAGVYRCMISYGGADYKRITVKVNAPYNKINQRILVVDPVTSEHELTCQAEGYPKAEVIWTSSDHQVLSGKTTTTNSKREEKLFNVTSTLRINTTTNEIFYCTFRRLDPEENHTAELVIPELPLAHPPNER

B1: 拮抗PD-1的抗体类似物BP蛋白 (VHH, not shown: small tags and cut ends)
VHH: DVQLQASGGGSVQAGGSLRLSCAASGYTIGTYAISWFRQAPGKEREGVAGIIPIFGKAHTYYADSVKGRFTISQDNAKNTVYLLMNSLEPEDTAIYYCAAKFHFVSGSPFGMDSWGQGTQVTVSS
抑制率 (inhibition of PD-1 binding to PD-L1) (PD-L1 [1]): 25%
结合强度 (relative to PD-1 binding PD-L1) (PD-L1 [2]): 115%

Source: patent publication CN110982824A
